Key:
[1] = target: T1, IE86 (IE2) C-terminal fragment (Human cytomegalovirus) (UniProt Q6SWP7); conditions: FPLC Superose 6; 20 mM HEPES pH 7.4, 250 mM NaCl, 1 mM DTT; most efficient length
T1 sequence: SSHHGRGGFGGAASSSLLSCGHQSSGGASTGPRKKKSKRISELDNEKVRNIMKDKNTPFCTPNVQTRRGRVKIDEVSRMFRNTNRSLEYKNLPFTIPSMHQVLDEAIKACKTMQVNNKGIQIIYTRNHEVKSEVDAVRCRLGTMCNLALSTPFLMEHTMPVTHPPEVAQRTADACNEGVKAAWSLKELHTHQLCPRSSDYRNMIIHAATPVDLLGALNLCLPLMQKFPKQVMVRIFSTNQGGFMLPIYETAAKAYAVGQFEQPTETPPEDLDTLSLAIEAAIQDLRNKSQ

[2] = target: T2, IE86 (IE2) full-length, minimal feedback circuit or virus-encoded (Human cytomegalovirus, UniProt P19893 P19893:1-580); assay: cell_activity; CMV C-DOT dose-response in 96-well format; indirect, decoy effect; conditions: tags: MIEP-IE86-IRES-GFP reporter or IE86-YFP virus; chain copies: 2
T2 sequence: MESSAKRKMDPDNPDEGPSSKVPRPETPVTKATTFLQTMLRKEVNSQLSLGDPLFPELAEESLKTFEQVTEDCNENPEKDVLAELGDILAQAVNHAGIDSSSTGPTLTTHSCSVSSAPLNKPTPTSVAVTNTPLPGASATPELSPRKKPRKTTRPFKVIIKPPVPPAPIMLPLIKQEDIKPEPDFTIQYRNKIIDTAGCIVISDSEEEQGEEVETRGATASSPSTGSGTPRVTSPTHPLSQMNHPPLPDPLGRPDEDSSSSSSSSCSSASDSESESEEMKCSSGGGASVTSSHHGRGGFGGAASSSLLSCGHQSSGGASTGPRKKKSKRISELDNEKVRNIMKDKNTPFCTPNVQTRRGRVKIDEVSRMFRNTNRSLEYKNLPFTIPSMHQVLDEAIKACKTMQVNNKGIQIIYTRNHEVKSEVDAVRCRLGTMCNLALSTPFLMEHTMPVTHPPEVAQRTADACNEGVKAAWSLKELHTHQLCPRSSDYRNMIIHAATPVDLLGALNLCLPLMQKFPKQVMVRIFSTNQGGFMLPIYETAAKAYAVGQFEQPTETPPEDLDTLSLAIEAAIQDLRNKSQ

[3] = target: T3, IE175 (ICP4) (Herpes simplex virus type 1, UniProt P08392 P08392:1-1298); assay: cell_activity; HSV-1 C-DOT dose-response in 96-well format; indirect, decoy effect; conditions: tags: YFP fusion, strain 17syn+; chain copies: 2
T3 sequence: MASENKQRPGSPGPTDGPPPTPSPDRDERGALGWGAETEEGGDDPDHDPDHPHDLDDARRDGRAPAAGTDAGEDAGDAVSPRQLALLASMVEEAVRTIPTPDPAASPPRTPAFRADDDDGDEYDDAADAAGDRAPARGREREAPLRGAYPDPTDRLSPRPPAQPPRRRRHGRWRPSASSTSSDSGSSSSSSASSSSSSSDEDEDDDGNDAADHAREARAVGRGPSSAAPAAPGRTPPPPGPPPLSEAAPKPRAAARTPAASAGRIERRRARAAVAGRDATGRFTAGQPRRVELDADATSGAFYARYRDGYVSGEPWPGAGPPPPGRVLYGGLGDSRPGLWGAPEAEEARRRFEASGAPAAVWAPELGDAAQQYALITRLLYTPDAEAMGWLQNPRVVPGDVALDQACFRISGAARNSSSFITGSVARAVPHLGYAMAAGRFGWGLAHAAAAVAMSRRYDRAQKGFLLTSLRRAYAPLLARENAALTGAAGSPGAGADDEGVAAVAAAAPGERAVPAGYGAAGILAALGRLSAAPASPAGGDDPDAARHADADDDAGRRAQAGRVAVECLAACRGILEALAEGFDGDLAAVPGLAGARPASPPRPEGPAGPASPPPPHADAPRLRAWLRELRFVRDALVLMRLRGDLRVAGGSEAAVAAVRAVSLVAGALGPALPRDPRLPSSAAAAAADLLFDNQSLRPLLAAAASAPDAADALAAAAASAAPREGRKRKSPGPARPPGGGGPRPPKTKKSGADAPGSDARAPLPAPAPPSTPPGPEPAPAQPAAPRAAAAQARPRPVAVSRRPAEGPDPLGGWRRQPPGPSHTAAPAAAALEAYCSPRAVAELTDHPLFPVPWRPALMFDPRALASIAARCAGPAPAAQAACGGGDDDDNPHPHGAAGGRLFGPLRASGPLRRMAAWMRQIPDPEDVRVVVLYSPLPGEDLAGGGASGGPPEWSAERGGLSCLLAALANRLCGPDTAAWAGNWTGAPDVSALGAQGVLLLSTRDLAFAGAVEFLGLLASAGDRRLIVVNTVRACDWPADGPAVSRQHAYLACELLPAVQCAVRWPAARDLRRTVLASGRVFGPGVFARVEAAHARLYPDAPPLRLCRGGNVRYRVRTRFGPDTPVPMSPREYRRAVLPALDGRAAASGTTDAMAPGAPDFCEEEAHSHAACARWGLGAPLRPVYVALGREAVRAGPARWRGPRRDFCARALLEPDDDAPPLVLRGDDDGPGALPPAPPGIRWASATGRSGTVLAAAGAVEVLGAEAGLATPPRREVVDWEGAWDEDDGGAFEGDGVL

GACAGATCGTTTAGTGAACCGTACACGA (double strand) [28 bp crs DNA]
binding signal (% protein in complex fraction) [1]: 98

B1: C-DOTC (dsDNA)
DNA 1: GACAGATCGTTTAGTGAACCGTACACGA
DNA 2: TCGTGTACGGTTCACTAAACGATCTGTC
modifications: PS at bonds marked * G*ACAGATCGTT*TAGTGAACC*GTACACG*A / T*CGTGTAC*GGTTCACTA*AACGATCTGT*C
IC50 [2]: < 1 nM

B2: C-DOTH (dsDNA)
DNA 1: CCGAGGACGCCCCGATCGTCCACACGGAG
DNA 2: CTCCGTGTGGACGATCGGGGCGTCCTCGG
modifications: PS at bonds marked * CCG*AGGAC*GCCCCGATC*GTCCACACG*GAG / CTC*CGTGTGGAC*GATCGGGGC*GTCCT*CGG
IC50 [3]: < 1 nM
